From patent US10941182 (Amgen, dated 2021)
Starred links: 1 amine or outer side, 2 acyl side, 3 side chain; linkers in the order of their positions; H or OH if unused. Non-standard residues stand in square brackets, D forms with d. Primed or numbered codes have the meaning given here. *: point of attachment. AC4Abu = α-carboxy-4-aminobutyric acid, O=C(C(CCN[*:1])C(=O)[*:3])[*:2]; dBip = N[C@H](Cc1ccc(-c2ccccc2)cc1)C(=O)O; Oic = O=C(O)[C@@H]1C[C@@H]2CCCC[C@@H]2N1; Phe(4-Cl) = N[C@@H](Cc1ccc(Cl)cc1)C(=O)O; dPhe(4-Cl) = N[C@H](Cc1ccc(Cl)cc1)C(=O)O; Phe(4-I) = N[C@@H](Cc1ccc(I)cc1)C(=O)O; γGlu = O=C(O)[C@H](CCC(=O)[*:2])N[*:1]; HOOC(CH2)8CO = O=C(O)CCCCCCCCC(=O)*; d(β3hF) = N[C@@H](CC(=O)O)Cc1ccccc1; NMeR = CN[C@@H](CCCNC(=N)N)C(=O)O; Tridecanoyl = CCCCCCCCCCCCC(=O)*; hArg = N=C(N)NCCCC[C@H](N)C(=O)O; Cha = N[C@@H](CC1CCCCC1)C(=O)O; NMeL = CN[C@@H](CC(C)C)C(=O)O; αMeP = C[C@@]1(C(=O)O)CCCN1; AC4Abu″ = not defined here; β3hP = O=C(O)C[C@@H]1CCCN1; Nle = CCCC[C@H](N)C(=O)O; Deg = CCC(N)(CC)C(=O)O; AEEA = NCCOCCOCC(=O)O; Aib = CC(C)(N)C(=O)O

T1: rat APJ receptor (rat, UniProt Q9JHG3 1-377)
T1 sequence (looked up): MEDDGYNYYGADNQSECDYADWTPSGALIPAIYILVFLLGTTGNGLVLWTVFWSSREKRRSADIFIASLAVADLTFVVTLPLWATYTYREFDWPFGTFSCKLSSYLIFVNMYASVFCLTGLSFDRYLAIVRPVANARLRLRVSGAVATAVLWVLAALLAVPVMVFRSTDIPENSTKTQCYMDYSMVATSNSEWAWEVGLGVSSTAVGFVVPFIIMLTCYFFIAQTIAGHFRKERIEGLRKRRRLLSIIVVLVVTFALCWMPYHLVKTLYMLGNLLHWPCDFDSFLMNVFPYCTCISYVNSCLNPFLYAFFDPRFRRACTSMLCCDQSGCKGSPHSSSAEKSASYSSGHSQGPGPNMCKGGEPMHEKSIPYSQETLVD

T2: human APJ receptor (human, UniProt P35414 1-380)
T2 sequence (looked up): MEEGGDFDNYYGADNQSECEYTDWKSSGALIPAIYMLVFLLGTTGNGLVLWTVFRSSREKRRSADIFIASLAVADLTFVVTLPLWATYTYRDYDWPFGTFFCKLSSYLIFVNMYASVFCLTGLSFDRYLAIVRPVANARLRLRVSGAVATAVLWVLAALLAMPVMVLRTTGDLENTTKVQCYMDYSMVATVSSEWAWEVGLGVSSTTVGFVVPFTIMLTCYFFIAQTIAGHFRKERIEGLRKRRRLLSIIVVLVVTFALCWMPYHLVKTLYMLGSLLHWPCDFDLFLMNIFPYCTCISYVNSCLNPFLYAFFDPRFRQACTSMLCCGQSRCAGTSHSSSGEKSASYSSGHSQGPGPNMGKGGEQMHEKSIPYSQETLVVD

T3: rat APJ receptor (rat, UniProt Q9JHG3 1-377)
T3 sequence (looked up): T1 sequence (looked up)

B1: SEQ ID NO: 289 (peptide)
peptide: {HOOC(CH2)8CO}-[γGlu][AEEA][AEEA][hArg][dR]Q[hArg]P[dR][NMeL]SHKG[Oic][Phe(4-I)]P[dBip]-OH
SMILES: CC(C)C[C@@H](C(=O)N[C@@H](CO)C(=O)N[C@@H](Cc1c[nH]cn1)C(=O)N[C@@H](CCCCN)C(=O)NCC(=O)N1[C@H](C(=O)N[C@@H](Cc2ccc(I)cc2)C(=O)N2CCC[C@H]2C(=O)N[C@H](Cc2ccc(-c3ccccc3)cc2)C(=O)O)C[C@@H]2CCCC[C@@H]21)N(C)C(=O)[C@@H](CCCNC(=N)N)NC(=O)[C@@H]1CCCN1C(=O)[C@H](CCCCNC(=N)N)NC(=O)[C@H](CCC(N)=O)NC(=O)[C@@H](CCCNC(=N)N)NC(=O)[C@H](CCCCNC(=N)N)NC(=O)COCCOCCNC(=O)COCCOCCNC(=O)CC[C@H](NC(=O)CCCCCCCCC(=O)O)C(=O)O
B2: Apelin polypeptide SEQ ID NO: 380 (peptide)
peptide: Tridecanoyl-[γGlu][AEEA][AEEA]QRP[NMeR][Cha]SHKG[Oic][Nle]P[d(β3hF)]-OH
SMILES: CCCCCCCCCCCCC(=O)N[C@@H](CCC(=O)NCCOCCOCC(=O)NCCOCCOCC(=O)N[C@@H](CCC(N)=O)C(=O)N[C@@H](CCCNC(=N)N)C(=O)N1CCC[C@H]1C(=O)N(C)[C@@H](CCCNC(=N)N)C(=O)N[C@@H](CC1CCCCC1)C(=O)N[C@@H](CO)C(=O)N[C@@H](Cc1c[nH]cn1)C(=O)N[C@@H](CCCCN)C(=O)NCC(=O)N1[C@H](C(=O)N[C@@H](CCCC)C(=O)N2CCC[C@H]2C(=O)N[C@@H](CC(=O)O)Cc2ccccc2)C[C@@H]2CCCC[C@@H]21)C(=O)O
B3: Apelin polypeptide SEQ ID NO: 412 (peptide)
peptide: Tridecanoyl-[AC4Abu][AEEA][AEEA]QRP[NMeR][Cha]SHKG[Oic][Nle][αMeP][Phe(4-Cl)]-OH
SMILES: CCCCCCCCCCCCC(=O)NCCC(C(=O)O)C(=O)NCCOCCOCC(=O)NCCOCCOCC(=O)N[C@@H](CCC(N)=O)C(=O)N[C@@H](CCCNC(=N)N)C(=O)N1CCC[C@H]1C(=O)N(C)[C@@H](CCCNC(=N)N)C(=O)N[C@@H](CC1CCCCC1)C(=O)N[C@@H](CO)C(=O)N[C@@H](Cc1c[nH]cn1)C(=O)N[C@@H](CCCCN)C(=O)NCC(=O)N1[C@H](C(=O)N[C@@H](CCCC)C(=O)N2CCC[C@@]2(C)C(=O)N[C@@H](Cc2ccc(Cl)cc2)C(=O)O)C[C@@H]2CCCC[C@@H]21
B4: Apelin polypeptide SEQ ID NO: 411 (peptide)
peptide: Tridecanoyl-[AC4Abu][AEEA][AEEA]QRP[NMeR][Cha]SHKG[Oic][Nle][Deg][Phe(4-Cl)]-OH
SMILES: CCCCCCCCCCCCC(=O)NCCC(C(=O)O)C(=O)NCCOCCOCC(=O)NCCOCCOCC(=O)N[C@@H](CCC(N)=O)C(=O)N[C@@H](CCCNC(=N)N)C(=O)N1CCC[C@H]1C(=O)N(C)[C@@H](CCCNC(=N)N)C(=O)N[C@@H](CC1CCCCC1)C(=O)N[C@@H](CO)C(=O)N[C@@H](Cc1c[nH]cn1)C(=O)N[C@@H](CCCCN)C(=O)NCC(=O)N1[C@H](C(=O)N[C@@H](CCCC)C(=O)NC(CC)(CC)C(=O)N[C@@H](Cc2ccc(Cl)cc2)C(=O)O)C[C@@H]2CCCC[C@@H]21
B5: Apelin polypeptide SEQ ID NO: 410 (peptide)
peptide: Tridecanoyl-[AC4Abu][AEEA][AEEA]QRP[NMeR][Cha]SHKG[Oic][Nle][dPhe(4-Cl)]-OH
SMILES: CCCCCCCCCCCCC(=O)NCCC(C(=O)O)C(=O)NCCOCCOCC(=O)NCCOCCOCC(=O)N[C@@H](CCC(N)=O)C(=O)N[C@@H](CCCNC(=N)N)C(=O)N1CCC[C@H]1C(=O)N(C)[C@@H](CCCNC(=N)N)C(=O)N[C@@H](CC1CCCCC1)C(=O)N[C@@H](CO)C(=O)N[C@@H](Cc1c[nH]cn1)C(=O)N[C@@H](CCCCN)C(=O)NCC(=O)N1[C@H](C(=O)N[C@@H](CCCC)C(=O)N[C@H](Cc2ccc(Cl)cc2)C(=O)O)C[C@@H]2CCCC[C@@H]21
B6: Apelin polypeptide SEQ ID NO: 390 (peptide)
peptide: Tridecanoyl-[γGlu][AEEA][AEEA]QRP[NMeR][Cha]SHKG[Oic][Nle]P[Phe(4-Cl)]-OH
SMILES: CCCCCCCCCCCCC(=O)N[C@@H](CCC(=O)NCCOCCOCC(=O)NCCOCCOCC(=O)N[C@@H](CCC(N)=O)C(=O)N[C@@H](CCCNC(=N)N)C(=O)N1CCC[C@H]1C(=O)N(C)[C@@H](CCCNC(=N)N)C(=O)N[C@@H](CC1CCCCC1)C(=O)N[C@@H](CO)C(=O)N[C@@H](Cc1c[nH]cn1)C(=O)N[C@@H](CCCCN)C(=O)NCC(=O)N1[C@H](C(=O)N[C@@H](CCCC)C(=O)N2CCC[C@H]2C(=O)N[C@@H](Cc2ccc(Cl)cc2)C(=O)O)C[C@@H]2CCCC[C@@H]21)C(=O)O
B7: Apelin polypeptide SEQ ID NO: 381 (peptide)
peptide: Tridecanoyl-[γGlu][AEEA][AEEA]QRP[NMeR][Cha]SHKG[Oic][Nle]P[dPhe(4-Cl)]-OH
SMILES: CCCCCCCCCCCCC(=O)N[C@@H](CCC(=O)NCCOCCOCC(=O)NCCOCCOCC(=O)N[C@@H](CCC(N)=O)C(=O)N[C@@H](CCCNC(=N)N)C(=O)N1CCC[C@H]1C(=O)N(C)[C@@H](CCCNC(=N)N)C(=O)N[C@@H](CC1CCCCC1)C(=O)N[C@@H](CO)C(=O)N[C@@H](Cc1c[nH]cn1)C(=O)N[C@@H](CCCCN)C(=O)NCC(=O)N1[C@H](C(=O)N[C@@H](CCCC)C(=O)N2CCC[C@H]2C(=O)N[C@H](Cc2ccc(Cl)cc2)C(=O)O)C[C@@H]2CCCC[C@@H]21)C(=O)O
B8: Apelin polypeptide SEQ ID NO: 409 (peptide)
peptide: Tridecanoyl-[AC4Abu][AEEA][AEEA]QRP[NMeR][Cha]SHKG[Oic][Nle][Phe(4-Cl)]-OH
SMILES: CCCCCCCCCCCCC(=O)NCCC(C(=O)O)C(=O)NCCOCCOCC(=O)NCCOCCOCC(=O)N[C@@H](CCC(N)=O)C(=O)N[C@@H](CCCNC(=N)N)C(=O)N1CCC[C@H]1C(=O)N(C)[C@@H](CCCNC(=N)N)C(=O)N[C@@H](CC1CCCCC1)C(=O)N[C@@H](CO)C(=O)N[C@@H](Cc1c[nH]cn1)C(=O)N[C@@H](CCCCN)C(=O)NCC(=O)N1[C@H](C(=O)N[C@@H](CCCC)C(=O)N[C@@H](Cc2ccc(Cl)cc2)C(=O)O)C[C@@H]2CCCC[C@@H]21

Target: T1, rat APJ receptor
Assay: cell-based or functional assay

Row | EC50 Rat APJ Receptor | Binder
1 | 1.3 nM | B1
2 | 0.215 nM | Tridecanoyl-[AC4Abu″][AEEA][AEEA][hArg][hArg]Q[hArg]P[NMeR][Cha]SHKG[Oic][Nle]P[Phe(4-Cl)]-OH (reading uncertain) [SEQ ID NO: 309]
3 | 0.128 nM | XXXQRPRLSHKGPXPF ({TDA}[AC4Abu][Aeea][Aeea][BhGln]RP[NMeArg]LSHKGP[Nle]P[4-Cl-F]{COOH}) [SEQ ID NO: 463]
4 | 0.528 nM | XXXQRPRLSHKGPXPF ({St}[AC4Abu][Aeea][Aeea]QRP[NMeArg]LSHKGP[Nle]P[4-Cl-F]{COOH}) [SEQ ID NO: 594]
5 | 0.467 nM | XXXQRPRLSHKGPXPF ({Subericacid}[AC4Abu][Aeea][Aeea]QRP[NMeArg]LSHKGP[Nle]P[4-Cl-F]{COOH}) [SEQ ID NO: 508]
6 | 1.39 nM | XXXQRPRLSHKGPXPF ({Succinicacid}[AC4Abu][Aeea][Aeea]QRP[NMeArg]LSHKGP[Nle]P[4-Cl-F]{COOH}) [SEQ ID NO: 497]

Target: T2, human APJ receptor
Assay: cell-based or functional assay

Row | EC50 Human APJ Receptor (GTPγS assay) | Binder
7 | 0.535 nM | XXXQRPRLSHKGPXPF ({TDA}[AC4Abu][Aeea][Aeea]Q[hArg]P[NMeArg][BLeu]SHKGP[Nle]P[4-Cl-F]{COOH}) [Apelin polypeptide SEQ ID NO: 383]
8 | 0.0862 nM | XXXQRPRLSHKGPXPF ({TDA}[AC4Abu][Aeea][Aeea]QR[aMePro][hArg][aMeLeu]SHKGP[Nle]P[4-Cl-F]{COOH}) [Apelin polypeptide SEQ ID NO: 482]
9 | 16.7 nM | B2
10 | 1.9 nM | Tridecanoyl-[AC4Abu″][AEEA][AEEA]QR[β3hP][NMeR][Cha]SHKG[Oic][Nle]P[Phe(4-Cl)]-OH (reading uncertain) [Apelin polypeptide SEQ ID NO: 441]
11 | 0.0461 nM | Tridecanoyl-[AC4Abu″][AEEA][AEEA]QRP[NMeR]LSH[Nle]GP[Nle]P[Phe(4-Cl)]-OH (reading uncertain) [Apelin polypeptide SEQ ID NO: 466]
12 | 0.41 nM | Tridecanoyl-[γGlu][AEEA][AEEA][dQ]RP[NMeR][Cha]SHKG[Oic][Nle][Aib][Phe(4-Cl)]-OH [Apelin polypeptide SEQ ID NO: 540]
13 | 0.614 nM | B3
14 | 2.1 nM | B4
15 | 0.469 nM | Tridecanoyl-[AC4Abu″][AEEA][AEEA]QRP[NMeR][Cha]SHKG[Oic][Nle][Aib][Phe(4-Cl)]-OH (reading uncertain) [Apelin polypeptide SEQ ID NO: 382]
16 | 2.47 nM | B5
17 | 0.11 nM | B6
18 | 6.12 nM | B7
19 | 1 nM | B8

Target: T3, rat APJ receptor
Assay: cell-based or functional assay

Row | EC50 Rat APJ Receptor (GTPγS assay) | Binder
20 | 4.77 nM | B2
21 | 0.436 nM | B3
22 | 2.94 nM | B4
23 | 2.68 nM | B5
24 | 0.57 nM | B6
25 | 5.42 nM | B7
26 | 0.511 nM | B8
